Test: yeast display, Sf9 membrane polyspecificity reagent, FACS + sequencing; frameworks hold sequencing errors
Method in brief: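 A synthetic nanobody library was expressed on Saccharomyces cerevisiae BJ5465 by galactose induction for 36–48 hours. The library was stained for 1 hour at 4 °C with 10% biotinylated, detergent-solubilized Sf9 membrane reagent and enriched with streptavidin microbeads before FACS. Low and high (top ~1%) gates were set on anti-HA fluorescence for expression and streptavidin fluorescence for reagent binding, and each polyreactivity label reflects the gate of origin.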

Row | Sequence | polyreactivity (PSR sort gate)
1 | QVQLVQTGGGLVQAGGSLRLSCAASGRIFLSYTRGWYSQAPGKERELVATIDSRVSTNYADSVKGRFTISRDNAKNTVYLQMNSLKPEDTAVYYCNADGFYSSHGYDYCGQGTQVTVSS | low polyreactivity
2 | QVQLVQTGGGLVQAGGSLRLSCAASGRIFYRYDMGCYRQAPGKERSLVAAIRYSGGRTYYADSVKGRFTISRDNAKNTVYLQMNSLKPEDNAVYYCADDEFFWSSEEDYWGQVTQVTVSS | low polyreactivity
3 | QVQLVVSGGGLVQAGGSLRLSCAASGFIFVNYAMGWYRQAPGKDGELVAAISRGGGRTYYADSVKGRFTISRDNAKNTVYLQMNSLKPEDTAVYYCNARRLGYHQRYFWGQGTQVTVSS | high polyreactivity
4 | QVQLVVSGGGLVQAGGSLRLSCAASGFTFRYYAMGWYRQAPGKEREMVAAITRGAGSTYYADSVKGRFTITRDNAKNTVYLQMNSLKPEDTAVYYCAAEFFQYYVATPFDPYNYWGQGTQVTVSS | low polyreactivity
5 | QVQLVVSGGGLVQAGGSLRLSCAASGIIFPFYVMGWYRQAPGKERELVAAITWSGDGTYYADSVKGRFTISRDNAKNTVYLQMNSLKPEDTAVYYCAAQWYYGGVKYYYWGQGTQVTVSS | low polyreactivity
6 | QVQLVVSGGGLVQAGGSLRLSCAASGNIFESYGMGGYRQAPGKERELVANINTSCGSTYYADSVKGRFTISRDNAKNTVYLQMNSLKPEDTAVYYCAAEWYPYPWGYGYWGQGTQVTVSS | low polyreactivity
7 | QVQLVVSGGGLVQAGGSLRLSCAASGSTFFKYVMGWYIQAPGKERELVAAITWRGGRTYYADSVKGRFTISRDNEKNTVYLQMNSLIPEDTAVYYCAAYDQSLYGRRYDYWGQGTQVTVSS | high polyreactivity
8 | QVQLVVSGGGLVQAGGSLRLSCAASGSTIASNAMGWYRQAPGKERELVAGISSSDGGTYYADSVKGRFTISRDNAKNNVYLEMNSLKREDTAVYYCNAPPGTFQWQGHSDYWGQGTQVTVSS | low polyreactivity
9 | QVQLVVSGGGLVQGGGSLRLSWAASGFILALNAMGWYIQAPGKEREFVADISWSGDSTYYADSVKGRFTISRDNAKNTFYLQMNSLKPEDTAVYYCAADPYYNWGYYYWGQGTQVTVSS | low polyreactivity
10 | QVQLVVSGGGLVQPGGSLRLSCAASGRIFGLYAMGWYRQAPGKEREVVAAYADSVKGRFTISRDNAKNTVYLQMNSLKPEDTAVYYCAKGPLYAGYSIDLRDFNYWGQGTQVTVSS | low polyreactivity
11 | QVQMQESGGGLVQAGGTLRLSCAASGSFSADEDMGWYRQAQGKEREFVAGISVGGNTNYADSVKGRFTISRENAKNTVYLQINSLKPEDTAVYYCAVLQDVYDALDYWAQGTQVTVSS | high polyreactivity
12 | QVQPVESAGGLVQAGGSLRLSCSASGFIFKYYAMGWYRQAPGKERELVAAISYSGTRTYYADSVKGRFTISRDNAKNTVYLQMNSLKPEDTAVYYCNARDWSFVGTYDYWGQGTQVTVSS | high polyreactivity
13 | QVQPVESGGGLVHAGGSLRLSCAASGSIFWYNAMGWYRQAPGQEWELVAAINWSGGSTFYADSVKGRFTISRDNEKNTVYLQMNSLNPEDTAVYYCAADDWSTGYDFWGQGTQETVSS | high polyreactivity
14 | QVQQHESGDGLVQAVGSLRLTCAASGYISGNYYMGWYRQATGKERELVAGIDAFGSSTNYADCVKGRFTISRDNAKNTVYLQMNSLKPEDTAVYYCAARPDGDRLFYYWGQGTQVTVSS | low polyreactivity
15 | QVQQQESAGGLVQAGGSLRLSCAASGNIFVDAYMGWYRQAPGKERELVATFAPADSVKGRFTISRDNAKNTVYLQMYSLKPEDTAVYYCAAFTGYSSVFGYWGQGIQVTVSS | high polyreactivity
16 | QVQQQESGGGLVQAGGSLRLSCAASGTIFQLTVMGRYRQAPGKERELVASIDYGGNTNYADSVKGRFTISRDNAKNSVYLQKNSMKPEDTEVYYCEASYESWTTHPYWGQGTQVTVSS | low polyreactivity
17 | QVQQQESGGGLVQAGGSLRLSCAASGYISVVIGMGWYRQSPGKERELVASIAYGAITYYTDSVKGRFTISRDYAKNTEYLQMNSLKAEDTAVYYCAADKPPLAYHWYWGQGTQATVSS | high polyreactivity
18 | QVQQQESGGGLVQAGGSLRQSYAASGYIFPSLAMGWYRQAPGKEREFVAAIGRGSTNNYADSVKGRFTISRDNAKNTAYQQMNSLKPEDTAVYYCAAAASPLTRHLYWGQGTQVTVSS | low polyreactivity
19 | QVQQQESGGGLVQVGGSQRLSCAASGNIFYNYAMGWYRHAQGKEREFDATINHGTSINYADSVKGRFTISRDNAKNTVYLQMNSLKPEDTAVYYCAADLSWTDNLFYWGQGTQVTVSS | low polyreactivity
20 | QVQQQESGGGMEQARGSLRLSCAASGYISWADYMGCYRQAPGKERELVAVIGYGSTTYYADSVKGRFTMSRDNAKNTAYLQMNSLKPEDTAVYYCAVGWYRDTAYKYWGQGTQVTVSS | low polyreactivity
21 | QVQQVESGGGLVQAGGSLRLSCAATGIIFNDYHMGWYRQAPGKERELVAAINYSGGSTYYADSVKGRFTISRDNAKNTVYLQMNSLKPEDTAVYYCAADNAVWEYDYWGQGTQVTVSS | low polyreactivity
22 | QVQQVESGGGLVQAGGSLRLSCAATGRTFALYAMGWYRLAPGKERELVAGITFRGGSTYYADSVKGRFTISRDNAKNTVYLQMNSLKPEDTAVYYCAAERWRWYYSWTMDYWGQGTQVTVSS | high polyreactivity

Row | Sequence | polyreactivity (PSR sort gate)
23 | QVQREESGGGLVQAGGSLRLSGAASGIIFHPYAMGWYRQAPGKERELVAAISWSGDGTYYADSVKGRFTISRDNAKNTVYLQMNSLKPEDTAVYYCNAFSQSWNFYGDGDYWGQGTQLTVSS | low polyreactivity
24 | QVQRLESRGGLVQAGGSLRLSCAASGSTFDYNAMGWYRQAPGKERELVAAITSSGGSTYYADSVKGRFTISRDNAKNNVYLQMHSLKPEDTAVYYCNADGYVPDYEYWGQGTQVTVSS | high polyreactivity
25 | QVQRVDSGGGLVQAGGSLRLTCAASGSTFDKYAMGWYRQAPGKERELVAAISLSGGSTYYADSVKGRFTISRDNAKNTVYLQMNSLKPEDTAVYYCNTPPSRYVRYGIYRYDYWGQGTQVTVSS | high polyreactivity
26 | QVQRVESAGGLVQAGGSLRLSCAASGRTFSGNARGWYRPAPGKERELVAGISTTGGSTYYADSVKGRFTISRDNAKNTVYLEMNSLKPADTAVYYCAAYSASNGGYDYWGQGTQVTVSS | high polyreactivity
27 | QVQRVESAGGLVQAGGSLRLSCAPTGSIFSTNPMGWYSQSPGTERELVATITWSDGSTYYADSVKGRFTISRDNAKNTVYLQLNSLKPEDTAVYDCATPYKRDFYKGGDYWAQGTQVTVSS | low polyreactivity
28 | QVQRVESGGGLGQAGGSLRLSCDASGRTFSGNTMGWYRQAPVKERELVAVINSGTRTYYADSVKGRFTISRDNAKNTVYLQMYSLKPEDTAGYYCATRCKSPSSKYGYWGQGTQVNVSS | high polyreactivity
29 | QVQRVESGGGLVLAGGSLRLSCAASAHIFAWYAMGWYRQAPGNERELVADISSRGGSTYYADSVKGRITISRDNAKNTVYLQMNSLKPEDTAVYSCAAVCYWTQDYDYWGQGTQVTVSS | low polyreactivity
30 | QVQRVESGGGLVQAAASLRLSCAASGRTFYVYTMGWYRPAPGKERELVAAITSGGSTNYADSVKGRFTISRDNAKNTVSLHMNSLKPEVTAVYYCAARVSTVFKRYYYWGQGTQVTVSS | high polyreactivity
31 | QVQRVESGGGLVQAGASLRLSCAASGRTFRSYTMGWYRQAPGKERELVATISGSGSTNYADSVKGRFTISRDNAKITVYLQMNSLKPEDTAVYYCAADVSLSVFKLDYWGQGTQVTVSS | low polyreactivity
32 | QVQRVESGGGLVQAGCSLLLSCASSGNIFTRNAMGGYRHAPGKEREWVAAISTSGGRTYYADSVKGRFTISRDNAKNTVYLQMYSLKPEDTAVYYCAADYLSGTELYYWGQGTQVTVSS | high polyreactivity
33 | QVQRVESGGGLVQAGGRLRLSFAAAGIIFKVNAMGWYRQAPGKERELVPAISWSGSSTYYADSVKGRFTISRDNAKNTVYLQMNSLKPEDTAVYYCGTRWFAVHMYWGQGTQVTVSS | high polyreactivity
34 | QVQRVESGGGLVQAGGSLLLSCAASGRTFRPYTMGWYRQAPGTERELVARITSGGSTNYADSVKGSFTISRDNAKNTVYLQMNSLKPEDTAVYYCNKPGDRHRLDEDYWGQGTQVTVSS | low polyreactivity
35 | QVQRVESGGGLVQAGGSLLLSCAASGRTIRHNAMGWYRPAPGKERELVAAISRSGGSTYYADSVKGRFTISRDKAKNTVYLLMNSLKPEDTAVYYCAAGYHGYDWGQGTQVTVSS | high polyreactivity
36 | QVQRVESGGGLVQAGGSLRLRCAASGRTFMTNAMGWYRQAPGTERELVAAISSGASTNYADSVKGRFTISRDNAKNTVYLQMNSLNPEDTAVYYCGAQLTDYQSKTLSYDYWGQGTQVTVSS | low polyreactivity
37 | QVQRVESGGGLVQAGGSLRLRCAASGSIFYQYALGWYRQARGKEREWVAAISRSGGRTYYADSVKGRFTISRDNAKNTVYLQMNSLKPEDTAVYYCAAGTSWPWYQRDYWGQGTQVTVSS | low polyreactivity
38 | QVQRVESGGGLVQAGGSLRLRCAASGSILYHNTMGWYIQAPGKEREFVASISANGGSTYYADSVKGRFTISRDNAKNTVYLQMNSLKPEDTAVYYCAARVADYPLVGGSSYNRMEYWGQGTQVTVSS | low polyreactivity
39 | QVQRVESGGGLVQAGGSLRLSCAASGFIFARNAMGWNRPAPGKERELVAAINQSGGITRYADSVKGRFTISRDNAKNTVYLQMNSLKPEDTAVYYCATPLYVRYDYWGQGSQVTVSS | high polyreactivity
40 | QVQRVESGGGLVQAGGSLRLSCAASGFTFYRYAMGWYRQAPGKEREFVAVINIRGSTTYYADSVKGRFTISRDNAKNTVYLQMNSLKPEDTAVYYCARRYRGPYYSLPRRKEFDYWGQGTQVTVSS | high polyreactivity
41 | QVQRVESGGGLVQAGGSLRLSCAASGFTLDPYAMGWYRQAPGKEREFVAAIRLSGSSTYYADSVKGRFTISRDNAKNTVYLQMNSLKPEDTAVYYCAADGISHWLYRYDYWGQGTQVTVSS | low polyreactivity
42 | QVQRVESGGGLVQAGGSLRLSCAASGLIFYRYVMGWYRQAPGKETELVAAISGNGASTYYADSVKGRFTISRDNAKNTVYLQMHSLKPEDTAVYYCNADVYVSSKTHSSSPQWWGYDYWGQGTQVTVSS | low polyreactivity
43 | QVQRVESGGGLVQAGGSLRLSCAASGRIFNWYVMGWKRQAPGKERELVAAINSGGITKYADSVKGRFTISRDNAKNTVYLQMNSLKPEDSAVYYCAAYYRRYDYDYWGQGTQVTVSS | high polyreactivity

Source: the nanobody polyreactivity screen of Harvey et al. (2022)
